From publication doi:10.1101/2024.03.15.585200 come the findings set out here.

The target of this assay is Toxoplasma gondii ABCB7 homolog (TGGT1_269000) (Toxoplasma gondii). Kind of assay: native gel or EMSA. In general terms: In EMSA bound probe runs differently from free probe, usually more slowly.

In general, stoichiometry N refers to a count of units in the complex or per binding partner. “Toxoplasma gondii ABCB7 homolog (TGGT1_269000) (natural protein)” came in with a stoichiometry N of 2.
